These substances were tested against αvβ3 receptors on M21 human melanoma cells (human) (UniProt P06756) (assay: cell-based or functional assay).
Sequence of UniProt P06756 (P06756 31-1048, chain 1 of 2): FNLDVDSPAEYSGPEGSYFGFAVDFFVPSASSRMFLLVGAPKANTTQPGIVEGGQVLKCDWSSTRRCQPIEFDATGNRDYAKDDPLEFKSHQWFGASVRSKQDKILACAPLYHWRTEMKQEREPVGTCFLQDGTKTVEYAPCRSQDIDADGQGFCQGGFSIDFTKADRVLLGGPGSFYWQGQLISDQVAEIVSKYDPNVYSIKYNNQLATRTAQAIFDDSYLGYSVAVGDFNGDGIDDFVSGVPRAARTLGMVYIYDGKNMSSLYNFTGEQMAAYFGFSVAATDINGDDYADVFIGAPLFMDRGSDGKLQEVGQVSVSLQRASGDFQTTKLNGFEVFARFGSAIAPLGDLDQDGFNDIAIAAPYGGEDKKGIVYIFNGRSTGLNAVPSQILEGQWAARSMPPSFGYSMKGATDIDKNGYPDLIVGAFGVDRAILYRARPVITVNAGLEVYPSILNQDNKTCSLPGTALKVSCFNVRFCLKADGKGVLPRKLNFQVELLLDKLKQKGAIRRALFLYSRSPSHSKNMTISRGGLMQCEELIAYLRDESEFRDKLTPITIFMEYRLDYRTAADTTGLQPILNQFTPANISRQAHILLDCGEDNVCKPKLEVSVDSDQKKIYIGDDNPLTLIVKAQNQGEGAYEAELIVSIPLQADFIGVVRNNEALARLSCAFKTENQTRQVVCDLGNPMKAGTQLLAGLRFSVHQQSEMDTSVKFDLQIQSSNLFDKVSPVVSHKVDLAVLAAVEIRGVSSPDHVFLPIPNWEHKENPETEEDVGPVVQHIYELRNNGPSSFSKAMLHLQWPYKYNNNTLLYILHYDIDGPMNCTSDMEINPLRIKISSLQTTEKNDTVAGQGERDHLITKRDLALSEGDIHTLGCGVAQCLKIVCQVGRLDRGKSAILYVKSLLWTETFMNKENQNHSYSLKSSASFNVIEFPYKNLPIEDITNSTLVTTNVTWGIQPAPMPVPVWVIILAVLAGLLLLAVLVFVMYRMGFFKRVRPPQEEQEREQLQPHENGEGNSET
Sequence of UniProt P06756 (P05106 27-788, chain 2 of 2, further chain): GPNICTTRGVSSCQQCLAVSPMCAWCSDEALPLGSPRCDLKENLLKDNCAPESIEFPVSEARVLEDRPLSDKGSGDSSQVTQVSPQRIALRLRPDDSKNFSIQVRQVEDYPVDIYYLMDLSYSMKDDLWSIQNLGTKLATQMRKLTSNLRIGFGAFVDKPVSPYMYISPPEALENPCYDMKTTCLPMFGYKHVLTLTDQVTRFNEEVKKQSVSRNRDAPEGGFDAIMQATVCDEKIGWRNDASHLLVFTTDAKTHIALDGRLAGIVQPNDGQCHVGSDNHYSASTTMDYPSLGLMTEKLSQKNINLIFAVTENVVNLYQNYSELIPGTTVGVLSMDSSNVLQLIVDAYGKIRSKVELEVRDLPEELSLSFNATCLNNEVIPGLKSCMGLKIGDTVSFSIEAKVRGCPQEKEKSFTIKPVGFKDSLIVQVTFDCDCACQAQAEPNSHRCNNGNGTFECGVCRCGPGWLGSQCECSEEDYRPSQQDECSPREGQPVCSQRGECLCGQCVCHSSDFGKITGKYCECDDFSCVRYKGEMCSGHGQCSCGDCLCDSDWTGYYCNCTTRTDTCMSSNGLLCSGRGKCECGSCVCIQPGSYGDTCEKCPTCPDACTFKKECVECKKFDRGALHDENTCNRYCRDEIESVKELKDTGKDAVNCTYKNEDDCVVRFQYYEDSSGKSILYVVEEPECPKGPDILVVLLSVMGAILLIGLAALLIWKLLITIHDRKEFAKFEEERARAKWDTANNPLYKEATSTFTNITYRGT

| Substance | phage internalization assay, pfu/µl |
| --- | --- |
| RGD (targeted null AAVP, Example 2) (peptide) | 14000 pfu/µl |
| RGDTNF-α (targeted TNF-α expressing AAVP) (peptide) | 21500 pfu/µl |
| fd (non-targeted null AAVP) | 300 pfu/µl |
| fdTNF-α (non-targeted TNF-α expressing AAVP) | 600 pfu/µl |

— patent US20100254896A1
